In the DeepSol protein solubility set:

Assay: soluble on expression in E. coli; label from the status in PepcDB or PDB records

Soluble on expression in E. coli, not soluble:
MGSDKIHHHHHHMRLSELKDAGRSPTLPLSITLVDAAGSADLQLLTLLRVLPGQRYVGAGVWRGTPVLAKLLVGGNAARHFQRELQGVKLLAEQGLTTPTLLADGLKEGEGGWLLFEFLDGAQSLADAWAAVENLPVLADEQHLVLGEALTAVAHMHAQGLWQEDLHLDNLLRHAGKLYLIDGAGIRAETPGQQLSRPRVLENLGVFFAQLPKRLEPFIEELLVHYLLANAEHALPLEALQKQVDKVRNWRQKDYLDKAGRECSLFSVQRTLSGLQAIRRSEVEAMQPVLEQADALIDKGHLYKTGGAASVARIEVNGRQLVIKRYNIKNTAHWFKRFWRPSRAWHSWIEGHRLEFLDIATPRPLAVLEQRVLGLRSRAYLVTEYVDGPDLTACFAPHVESGDAPEEQVDALVHVMQQLIRERISHGDFKGHNLFWHNGQWSLIDLDAMCQHATQLSFAPAYARDRARLLRNWPTGSALHQRLDRLLPKLVD
MGSDKIHHHHHHMRNQILKKATVSIMLLLCINVSVADTSTSVSCAESGSASAYSRSGNSVSYSSVNCSSNNEQNAMTPAGIAVSKSYSPEPYTSLVLSGAFNTEIKTSSENRVIISGDSNYVESVEVNSSDGELIIRRPGPGNDNLNVIVESISLQKLKISGAGSTNIYGDFPDGLSVRKSGAGSINIEGQASTLKLNLSGAGNTTARDFTVDNVEIDATGAGNIAVCAKKSVAGSLAGAVHFKVYCNPSQRSVNTRGVSRVSYR
MGSDKIHHHHHHMRPIQRKRVPGLNAWEARWYHGTKWVRVSSANGKSRRARRFSLMVLGGWVMERAQHNLRFTELARARAYAQAHGLRQKAVCHIVRRGTELLVFDHVPDGGAGVQVVAGGLEAGETPEQAALREAGEETGQDGFQVVGFLGSAVWLNTEHAKRELRHFVHLTAPDDLPDTWQHCADGHLFSFRWEPLHSARVDWEMDAFLPELG
MGSDKIHHHHHHMRQESLFNPDKSSSSPLAYRVRPVTLADFKGQEHLLGPGKLLRQLIAEDQLPSLIFWGPPGVGKTTLAEIIAQQTQSHFITFSAVTSGIKEIRQIMDEAEANRDFGEKTIVFIDEIHRFNKAQQDAFLPYVERGSITLIGATTENPSFEINAALLSRCKVLVLKALTPDALEAVLQGALQNPKGFPDLEITMQPDTLRLIAEFANGDARMALNTLEMAVLNGDRDGKHVTITTAGLSQLINTKSLRYDKHGEEHYNIISALHKSMRNSDVDAAIYWLMRMLAGGEDPLYIARRLIRFASEDIGLADRQALPLTVAVFQACQLIGMPECDVNLTEAVTYLALAPKSNALYAAKSAAQADIKATGNLPVPLQIRNAPTKLMKDLGYGSDYQYAHDTAAKLTTMTTMPPELKQHRYYEPTSQGQEKAWQQRLAAIRSGTSNIRKPNRQMMRHKDCNLMRIH
MGSDKIHHHHHHMRRTDKKKTFGQQSSKVTQLADTLSQAISMKKFREGDSLPSINQLSAEYGVSRDTVFKAFLDLRERGLIDSTPGKGYYVTSQVTNVLLLLDQYTPFKEALYNSFVKHLPINYKVDLLFHQYNERLFNTIIRESVGKYNKYIVMNFDNEKFSMVLNKIHPTKLLLLDFGKFEKEKYSYICQDFDEAFYQALLMLKEKLRHYPQLVLLFSKNLKHPQSSKEYFTRFCEEQGFLCEIQEDIENLTVRKGVVYIAIKQQDVVKVVKQGRLEGLKCGKDFGLLAYNDIPSYEVIDEGITSLSIDWEMMGNEAANFVLNNVPIQKYLPTEVRLRKSL
MGSDKIHHHHHHMRTYRLVIACPDRVGIVAKVSNFLALYNGWINEASHHSDEQSGWFFMRHEIRAESLPFGIEAFREAFAPIAEEFSMTWRITDSAQKKRVVLMASRESHCLADLLHRWHTDELDCEIPCVISNHNDLRSMVEWHGIPFFHVPVDPKDKAPAFAEVSRLVQEHAADVVVLARYMQILPPQLCRDYAEKVINIHHSFLPSFVGAKPYHQAALRGVKLIGATCHYVTEELDAGPIIEQDVVRVSHADSIEDMVRFGRDVEKMVLARGLRYHLEDRVLVHGNKTVVFD
MGSDKIHHHHHHMRVLIINTSERIGGAAVAAGRLMESLKNNGIKAKMLVRDKQTDQISVVGLKGSWLHVWKFMWERIVIWKANRFKKNDLFAVDIANTGTDITSLPEFQQADVIHLHWINQGMLSLNTIRKILTSGKPVVWTMHDMWPCTGICHYARECKNYEQECHHCPYIYGGGGKKDLSTRIFRKKKEIYSQASITFVGCSRWLAEKAKVSGLLTGQTVISIPNAINTNLFKPHNKQEARRKCRLPQEGKLILFGSVKITDKRKGIDYLIEACKLLAEKHPEWKESLGVVVFGNQSQQLQDLIPFRVYPLPYIKNEHELVDIYNAVDLFAIPSLEENLPNMVMEAMSCGVPCVGFNTGGIPEMIDHLHNGYVAQRKSSEDLANGIHWVLTEPEYAELSAQACRKAIGNYSESIIAKKYTEVYNKITGKYA
MGSDKIHHHHHHMRVLVINSGSSSIKYQLIEMEGEKVLCKGIAERIGIEGSRLVHRVGDEKHVIERELPDHEEALKLILNTLVDEKLGVIKDLKEIDAVGHRVVHGGERFKESVLVDEEVLKAIEEVSPLAPLHNPANLMGIKAAMKLLPGVPNVAVFDTAFHQTIPQKAYLYAIPYEYYEKYKIRRYGFHGTSHRYVSKRAAEILGKKLEELKIITCHIGNGASVAAVKYGKCVDTSMGFTPLEGLVMGTRSGDLDPAIPFFIMEKEGISPQEMYDILNKKSGVYGLSKGFSSDMRDIEEAALKGDEWCKLVLEIYDYRIAKYIGAYAAAMNGVDAIVFTAGVGENSPITREDVCSYLEFLGVKLDKQKNEETIRGKEGIISTPDSRVKVLVVPTNEELMIARDTKEIVEKIGR
MGSDKIHHHHHHMRWEEVEPVVRELLDFQISSPEEFRTFINKVTDFFDRVREEHGWLYIKMTVNADKEEFAKAYEEFQKEIVAKLKPYEQKIKEKIVENEHFAPRGYEHMIKVIKNDVELFREENVPLQVKESILSRNYGTIVGNIEVDFEGEKKTLQQLSVYLRDPDRSTRELAWRKRYEGIWEVRDKLNKLFDELKEIRHQQALNAGFSNYRDYMHRLKSRFEYTPEDLYRFHEAVEKEVVPYLVERTKIRQRKLGIESVRPWDTAVDVDGKVLKPFSSVEEFMEKTERALKRLNPTFAERFRLMREKNLLDLENRKGKAPGGYNHTLPKTGAPFIFMNAVGQPGDVRTIFHELGHSMHSFETLSLPVFYRPHRMEVAELASMSLELISMEYWDEFYTDPEDLKKAKIEELEGALYFLPWCMIVDAFQHWIYTNPDHTPKERDEYFAYLMDRFNPGVDWSDLDEEKKTRWLFQLHIFEVPFYYIEYGIAQIGALAIYRNYIEDPEKTLKDYQRFLSVGCSMPVDEVYKTAGIELKFSRDYIREIVDFVAKQIEEIEK
MGSDKIHHHHHHMRYTLRQLEVFVAIAQHESVSLAARRLAMSQSATSTALAELERQFDCQLLDRIGKRLKLNALGFQLLPKAVALLDRGEEIEELLKGQRGIGSLDVGATLTIGNYLATLLISDFMRRHPGSRVRLHVRNTASIVDRVTHHDLDLGLIEGDCQHDDIVMQPWVEDELTVFCSPRHPLANAGEADLEALMREDWIMREEGSGTRRTLDQAMRHRRGRLNVLLELEHTEAIKRAVESGLGIGCVSHLALRDAFRRGSLVPIATPELDLTRQFTFIWHRHKYLTTAMREFLRLCREMTAGVQRSDEIDLPAVP
MGSDKIHHHHHHMSDSPLIAFPRGCITGTFIRRVKRFSVEMETAGAGAPERVWIHSNNSGSMLGLLRAGAPVLASPAANPARKLKWTQELAGLDGMWVGVNTQTPNRLLEAAFHAGRLPWAAGYTMFRREARCGASRLDARMDAPQDSGLPPLWVECKNVTMVEDDVAAFPDAATERGQKHLREMMEIVRQGQRAAMFYLVQRADGHCFGPADYVDPVYAGLFYEAAAAGVEMYPHRALVSEHGIDLGPLLPVVPPPGV
MGSDKIHHHHHHMSDYNFAYLDEQTKRMIRRAILKGLAIPGYQVPFASREMPMPYGWGTGGVQVSAAALTPDDTFKVIDQGADDTTNAVSIRKFFERTAGVATTEETEKASIIQTRHRIPEADLREDQILVYQVPIPEPLRFLEPRETETRKMHALEEYGLMHVKLYEDISQHGAIATSYAYPVKVEGRYVMDPSPIPKFDNPKMEMAAIQLFGAGREQRIYAVPPYTKVVSLDFEDYPFEATKAEHPCDLCAAEDSYLDEVIVDDQGGRMFVCSDTDYCRSRREAGHVGRLGQNAPLNTGPEAA
MGSDKIHHHHHHMSEIKNRIDFVYIFDVQDGNPNGDPDAGNLPRVDAETGMGLVTDVCLKRKVRNYVQVAKGLEDGYDIFIKEKAVLNTLIDKAHDDSEVKNAKDKTDAARRFMCKNYFDVRTFGAVMSTGKNAGQVRGPIQFTFARSVDPIAAAEHSITRMAVATDAEAKKQSGDNRTMGRKATVPYGLYICHGFISANLAQQTGFSEEDLALFWEALKNMFDMDRSAARGLMSAQKLIVFKHDSVLGNAPANKLFDLVKVEKVCDGAPRSFGDYHVTIDKEHVPSNVTVEELI
MGSDKIHHHHHHMSEIWRQCKGERHIRPLQGRLVRLVESQEQVATLQLVDTLEEQALLEELLESSKPPVPADAEPLHYLLKTPFRYPPLRWGSRFGRRHEPSLFYAALKLETAMAESAYYRCVLWSGMVVPPPSGRILSEHASFEAGWKVERGIRLQAPPFSDHEAALTDIADYRAPQELGSAMRSAGVQAFEYRSARCPERGCNVALFTPAAFTEKRPRNLTPWLCETTAGYVAFKPAHVPGSPKIFSWELFLVDGKLPHPA
MGSDKIHHHHHHMSEKQTTILIINMASDFGGGEIQTEELMLNLTNYNICFFGKSSGKFIPRLKEKAPHIKIVNLWEMLKLVFCCSSLIIHAQDGRGAHIAGFLKKISGRPVVITRHVSFPFKRKFSLSSYKNADMLVGVSQQVTENLKLLNSNCRTIYGCIKPLLENAEFEQRYFVKKHILAIAHIGNLQAVKNFQLTLSLAKNFSQIQFFIVGSGELEQELKQQAINLPNITFIPFTPYIGSVFKKVDLQIVPSHSEGLGAVILEGYQYRVSVIAHQTGGISEIVQNEKTGFLVENNDPMIYHKILTTLLDNPQKLCELKQNVERYIFEHDFSARRMALEYEQVYSAILANRTQK
MGSDKIHHHHHHMSELLAIPLKRTLEVDFATELSKLIDTTSFQTASFFQSDILKVVDARNNAIAPDISIDGLSALKEYYVILLQLEKKFPNNQIEFTWFQTLSQKSRGTSQYSLQWEKLTIIYNIGCMYSLLALNSNNDAAESLKTSCLYFQNAAGCFKHVLDHQKNLETIPVVDDATLNALTSLMLAQAQECFWFKAVQDKHKDSLIAKLSQQIVDFYCEAINDAQRGKLIRSDWINHLKAKKAYFSAVTYYRIALSFNEKKQFGNVVKALQMGLQFINESTLSSQAKFKTVVESSLKEAQRDNEFIYLQEVPSELPSIKPALMVKPSSSATLLPSIKKDETLFKDLIPIEVMEYCTAYNERQDEYVEQRVTNPLASLNKLLKESLTTFQIPQGLTKVSEAELSHYQASLNNLLINNKNVQVQLDNIEQILNEEAFTDNQLRLKHGTLNWTLPESSTTNTAYYEKLKKLRGYLDEGSAIDKQTNELFQSIDKNLIGSEIRLPESNDPLTNKIKMIIQERNDYIDRTRRKSSEYRILPKIITSYKKNGTVDFEPIFIGHLKYFDEDLRYVNSTKEENIKLIEEVNLSKKNNPGRSGIEPKKMVRIDPRELYIEDLRYSFKLLDEVKENLSAGTAFYENLITSTSNLYNEVQEYDTARRAEKARLDKSLTFEDQ
MGSDKIHHHHHHMSFKDIQADFIEAIRRPDLPCPHGIAPQRMGVYRELFFNNVSGFVNSGFPVLKSLYGEAQWQAQLRQFFTEHDCQNPLFIGIAGEFLAFLSARERQVDEPPFLLELAHYEWLELVVATAMEQGDEAAFDDTALAQQAYLDARLGLASHARVAQYHFEVEKISPQYQPDTPLPSPCYFCLYRDSDDEVSFLKLNPMTAQLLAVLEANTGIKYIELLQKMQALYPNFDGQQLREGIAQVLGQMAVRGVVVQKLQ
